# Results from PMC5820281.
# Key:
# [1] = target: protein A/G (Ultralink protein A/G beads); assay: luciferase pull-down (protein A/G beads, luciferase-tagged Fc-IgG); conditions: read off a plot
# [2] = target: GST-Ro52-Δ2 (C-terminal fragment of Ro52/TRIM21 fused to glutathione S-transferase) (UniProt P19474); assay: luciferase pull-down (bead-immobilized GST fusion protein, luciferase-tagged Fc-IgG); conditions: read off a plot
# [3] = target: Renilla luciferase-IgG1 Fc fusion protein (Fc region of IgG1, amino acids 233–449); assay: as above; conditions: parent: est. 240000; read off a plot
# Chain of UniProt P19474 (P19474 277-475, stated change not applied): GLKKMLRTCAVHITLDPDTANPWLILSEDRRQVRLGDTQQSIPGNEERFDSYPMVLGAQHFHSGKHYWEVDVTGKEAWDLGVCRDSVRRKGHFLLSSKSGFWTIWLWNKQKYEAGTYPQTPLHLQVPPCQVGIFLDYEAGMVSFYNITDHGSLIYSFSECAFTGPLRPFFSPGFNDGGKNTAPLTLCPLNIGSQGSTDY
Substance,response [1] [LU],response [2] [LU],response [3] [LU]
"Renilla luciferase-IgG1 Fc fusion protein (Fc region of IgG1, amino acids 233–449) H435del; N436del; H437del",3600,4200,–
GST-Ro52-Δ2 (C-terminal fragment of Ro52/TRIM21 fused to glutathione S-transferase) (from UniProt P19474) D355A,–,–,3900
